# Results published in the Human Domainome abundance scans (Beltran et al. 2025).
# ± gives the uncertainty stated by the source.
# B1: Homeobox protein SIX6, residues 134 to 184; numbered along this chain, O95475 (parent)
# chain: CFKERTRHLLREWYLQDPYPNPSKKRELAQATGLTPTQVGNWFKNRRQRDR
# Variants of: B1
# Experiment: abundance fitness (aPCA) (normalised: wild type 0, dead -1); higher = more abundant; growth selection in yeast, the domain comes from the species named
# Conditions: Homo sapiens
row,Variant,abundance fitness
1,T35Q,-0.809 ± 0.12
2,T35H,-0.749 ± 0.083
3,T35C,-0.979 ± 0.18
4,T35A,-0.846 ± 0.077
5,W42R,-0.762 ± 0.07
6,W42G,-0.851 ± 0.1
7,W42T,-0.581 ± 0.14
8,W42F,-0.649 ± 0.49
9,W42M,-0.881 ± 0.091
10,W42A,-1.05 ± 0.23
11,W42L,-0.743 ± 0.14
12,W42K,-0.952 ± 0.31
13,W42P,-0.983 ± 0.37
14,W42V,-0.931 ± 0.18
15,W42E,-0.683 ± 0.15
16,W42Q,-0.726 ± 0.29
17,W42D,-0.769 ± 0.21
18,W42S,-0.898 ± 0.075
19,P36S,-0.177 ± 0.045
20,P36Y,0.372 ± 0.061
21,P36Q,-0.246 ± 0.094
22,P36H,-0.553 ± 0.09
23,P36A,-0.225 ± 0.052
24,P36V,-0.17 ± 0.058

row,Variant,abundance fitness
1,P36G,-0.664 ± 0.053
2,P36N,-0.542 ± 0.16
3,P36W,-0.328 ± 0.047
4,P36F,0.217 ± 0.082
5,P36D,-0.357 ± 0.12
6,P36R,-0.603 ± 0.047
7,P36L,-0.079 ± 0.05
8,P36E,0.065 ± 0.057
9,P36K,-0.33 ± 0.092
10,P36I,-0.107 ± 0.083
11,P36T,-0.125 ± 0.059
12,P36C,-0.527 ± 0.11
13,A29N,-1.03 ± 0.29
14,A29R,-0.982 ± 0.11
15,A29H,-0.944 ± 0.15
16,A29Q,-0.527 ± 0.095
17,A29P,-0.916 ± 0.2
18,A29I,-0.727 ± 0.28
19,A29L,-0.917 ± 0.068
20,A29T,-1.07 ± 0.23
21,A29D,-0.504 ± 0.16
22,A29S,-0.058 ± 0.07
23,A29W,-0.923 ± 0.13
24,A29E,-0.815 ± 0.16

row,Variant,abundance fitness
1,A29V,-0.767 ± 0.063
2,A29F,-1.07 ± 0.38
3,A29G,-0.397 ± 0.062
4,F43S,-0.872 ± 0.12
5,F43C,-0.893 ± 0.21
6,F43K,-0.881 ± 0.11
7,F43M,-0.94 ± 0.29
8,F43L,-0.904 ± 0.1
9,F43R,-0.92 ± 0.066
10,F43D,-0.775 ± 0.14
11,F43A,-1.01 ± 0.17
12,F43N,-0.882 ± 0.17
13,F43E,-0.821 ± 0.11
14,F43H,-0.858 ± 0.31
15,F43I,-0.649 ± 0.32
16,F43G,-0.577 ± 0.079
17,F43T,-0.927 ± 0.11
18,V39A,-0.9 ± 0.15
19,V39R,-0.882 ± 0.052
20,V39M,-0.944 ± 0.087
21,V39E,-0.906 ± 0.14
22,V39K,-0.556 ± 0.13
23,V39P,-0.999 ± 0.2
24,V39G,-0.976 ± 0.11

row,Variant,abundance fitness
1,V39T,-0.99 ± 0.13
2,V39D,-0.953 ± 0.35
3,V39S,-0.934 ± 0.18
4,V39Y,-0.646 ± 0.3
5,V39Q,-0.455 ± 0.14
6,V39I,-0.096 ± 0.087
7,V39L,-0.769 ± 0.053
8,V39W,-0.896 ± 0.098
9,K24H,-0.493 ± 0.097
10,K24W,-0.556 ± 0.069
11,K24N,-0.281 ± 0.099
12,K24T,-0.058 ± 0.048
13,K24I,-0.051 ± 0.091
14,K24D,-0.197 ± 0.068
15,K24E,-0.188 ± 0.051
16,K24G,-0.374 ± 0.074
17,K24Y,-0.714 ± 0.069
18,K24R,-0.104 ± 0.058
19,K24V,-0.13 ± 0.076
20,K24F,-0.984 ± 0.13
21,K24S,-0.192 ± 0.059
22,K24P,-0.864 ± 0.08
23,K24M,-0.139 ± 0.084
24,K24Q,0.074 ± 0.054

row,Variant,abundance fitness
1,T37R,0.084 ± 0.045
2,T37I,-0.1 ± 0.11
3,T37C,-0.109 ± 0.095
4,T37Y,-0.236 ± 0.14
5,T37F,-0.28 ± 0.12
6,T37Q,0.026 ± 0.065
7,T37M,-0.249 ± 0.092
8,T37P,-0.673 ± 0.17
9,T37G,-0.133 ± 0.05
10,T37D,0.026 ± 0.078
11,T37K,0.568 ± 0.079
12,T37V,-0.076 ± 0.081
13,T37E,0.018 ± 0.081
14,T37H,-0.049 ± 0.13
15,T37N,-0.169 ± 0.06
16,T37A,-0.005 ± 0.066
17,T37W,-0.545 ± 0.093
18,T37L,-0.197 ± 0.068
19,T37S,-0.043 ± 0.043
20,G40E,-0.032 ± 0.076
21,G40C,-0.279 ± 0.092
22,G40R,0.127 ± 0.054
23,G40M,-0.533 ± 0.24
24,G40A,0.01 ± 0.058

row,Variant,abundance fitness
1,G40T,-0.175 ± 0.12
2,G40S,0.152 ± 0.062
3,G40V,-0.605 ± 0.095
4,G40F,0.225 ± 0.18
5,G40D,-0.503 ± 0.25
6,G40N,-0.579 ± 0.21
7,G40P,-0.783 ± 0.18
8,G40K,0.335 ± 0.11
9,G40H,-0.159 ± 0.062
10,G40Q,-0.245 ± 0.052
11,G40W,-0.467 ± 0.062
12,G40L,-0.615 ± 0.074
13,Q30T,-0.051 ± 0.084
14,Q30D,-0.064 ± 0.085
15,Q30I,0.036 ± 0.11
16,Q30M,-0.006 ± 0.073
17,Q30H,-0.205 ± 0.15
18,Q30K,-0.03 ± 0.1
19,Q30V,-0.059 ± 0.048
20,Q30N,-0.374 ± 0.17
21,Q30E,-0.193 ± 0.12
22,Q30F,-0.239 ± 0.11
23,Q30L,-0.25 ± 0.046
24,Q30W,0.057 ± 0.069

row,Variant,abundance fitness
1,Q30C,-0.301 ± 0.11
2,Q30Y,-0.381 ± 0.1
3,Q30P,-0.893 ± 0.19
4,Q30R,-0.365 ± 0.059
5,Q30G,-0.276 ± 0.065
6,Q30A,-0.219 ± 0.089
7,T32I,-0.606 ± 0.066
8,T32N,-0.84 ± 0.12
9,T32G,-0.863 ± 0.069
10,T32Y,-0.84 ± 0.26
11,T32Q,-1.01 ± 0.26
12,T32P,-0.783 ± 0.17
13,T32S,-0.312 ± 0.053
14,T32L,-0.384 ± 0.065
15,T32V,-0.294 ± 0.076
16,T32E,-0.519 ± 0.19
17,T32A,-0.572 ± 0.089
18,T32C,-0.174 ± 0.11
19,T32K,-0.932 ± 0.1
20,T32R,-0.799 ± 0.085
21,T32D,-0.719 ± 0.18
22,T32W,-0.873 ± 0.13
23,T32F,-0.947 ± 0.15
